From USRE47150 (Bayer, dated 2018)

Experiments:
[1] = biological target: T1, mouse tissue factor pathway inhibitor (TFPI) (mouse, UniProt O54819 29-289, limits assumed); experiment: competitive ELISA
T1 construct: bought; also called mTFPI; murine TFPI
T1 sequence (looked up): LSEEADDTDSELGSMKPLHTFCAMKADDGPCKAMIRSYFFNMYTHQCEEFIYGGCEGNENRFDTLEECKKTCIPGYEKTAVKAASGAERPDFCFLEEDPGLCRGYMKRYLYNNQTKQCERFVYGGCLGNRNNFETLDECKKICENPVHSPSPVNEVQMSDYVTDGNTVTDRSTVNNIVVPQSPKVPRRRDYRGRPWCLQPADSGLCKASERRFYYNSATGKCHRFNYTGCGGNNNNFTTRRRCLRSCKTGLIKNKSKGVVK

[2] = biological target: T2, human tissue factor pathway inhibitor (TFPI) (human, UniProt P10646 29-304, limits assumed); experiment: competitive ELISA
T2 construct: bought; also called hTFPI; human TFPI
T2 sequence (looked up): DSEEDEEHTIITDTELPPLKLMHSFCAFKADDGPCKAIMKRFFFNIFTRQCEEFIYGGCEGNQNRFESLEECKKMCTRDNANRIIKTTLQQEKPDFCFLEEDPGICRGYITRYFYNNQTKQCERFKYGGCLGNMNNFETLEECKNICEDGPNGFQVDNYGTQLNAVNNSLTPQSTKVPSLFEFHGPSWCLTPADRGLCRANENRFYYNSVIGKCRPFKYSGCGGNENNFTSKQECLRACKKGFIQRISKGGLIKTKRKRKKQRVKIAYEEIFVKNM

B1: 4B7 HC N32D+D62R+Y112D/LC S32R+D33F+N35I+N39D+D97T (Fab, V domains shown)
VH: QVQLQQSGPGLVKPSQTLSLTCAISGDSVSSDSAAWSWIRQSPGRGLEWLGIIYKRSKWYNRYAVSVKSRITINPDTSKNQFSLQLNSVTPEDTAVYYCARWHSDKHWGFDDWGQGTLVTVSS
VL: DIVMTQSPLSLPVTPGEPASISCRSSQSLVFRFGITYLDWYLQKPGQSPQLLIYKGSNRASGVPDRFSGSGSGTDFTLKISRVEAEDVGVYYCQQYTSYPLTFGQGTKVEIKR
[1]
  binding result: no binding
[2]
  variant/HC_D62R: 1.3 ratio

B2: 4B7 HC N32D+D62R+Y112D/LC S32R+D33R (Fab, V domains shown)
VH: QVQLQQSGPGLVKPSQTLSLTCAISGDSVSSDSAAWSWIRQSPGRGLEWLGIIYKRSKWYNRYAVSVKSRITINPDTSKNQFSLQLNSVTPEDTAVYYCARWHSDKHWGFDDWGQGTLVTVSS
VL: DIVMTQSPLSLPVTPGEPASISCRSSQSLVFRRGNTYLNWYLQKPGQSPQLLIYKGSNRASGVPDRFSGSGSGTDFTLKISRVEAEDVGVYYCQQYDSYPLTFGQGTKVEIKR
[1]
  variant/HC_D62R: 7.2 ratio
[2]
  variant/HC_D62R: 14.8 ratio

B3: 4B7 HC N32D+D62S+H107M+Y112D/LC S32R+D33R+N35T (Fab, V domains shown)
VH: QVQLQQSGPGLVKPSQTLSLTCAISGDSVSSDSAAWSWIRQSPGRGLEWLGIIYKRSKWYNSYAVSVKSRITINPDTSKNQFSLQLNSVTPEDTAVYYCARWHSDKMWGFDDWGQGTLVTVSS
VL: DIVMTQSPLSLPVTPGEPASISCRSSQSLVFRRGTTYLNWYLQKPGQSPQLLIYKGSNRASGVPDRFSGSGSGTDFTLKISRVEAEDVGVYYCQQYDSYPLTFGQGTKVEIKR
[1]
  variant/HC_D62R: 20.3 ratio
[2]
  variant/HC_D62R: 19.6 ratio

B4: 4B7 HC N32D+I53T+D62Q+Y112D/LC F31I+D33F+N35I (Fab, V domains shown)
VH: QVQLQQSGPGLVKPSQTLSLTCAISGDSVSSDSAAWSWIRQSPGRGLEWLGITYKRSKWYNQYAVSVKSRITINPDTSKNQFSLQLNSVTPEDTAVYYCARWHSDKHWGFDDWGQGTLVTVSS
VL: DIVMTQSPLSLPVTPGEPASISCRSSQSLVISFGITYLNWYLQKPGQSPQLLIYKGSNRASGVPDRFSGSGSGTDFTLKISRVEAEDVGVYYCQQYDSYPLTFGQGTKVEIKR
[1]
  binding result: no binding
[2]
  variant/HC_D62R: 5.7 ratio

B5: 4B7 HC N32D+G44S+D62R+Y112D/LC S32R+D33F+N35I+D97T (Fab, V domains shown)
VH: QVQLQQSGPGLVKPSQTLSLTCAISGDSVSSDSAAWSWIRQSPSRGLEWLGIIYKRSKWYNRYAVSVKSRITINPDTSKNQFSLQLNSVTPEDTAVYYCARWHSDKHWGFDDWGQGTLVTVSS
VL: DIVMTQSPLSLPVTPGEPASISCRSSQSLVFRFGITYLNWYLQKPGQSPQLLIYKGSNRASGVPDRFSGSGSGTDFTLKISRVEAEDVGVYYCQQYTSYPLTFGQGTKVEIKR
[1]
  variant/HC_D62R: 41.5 ratio
[2]
  variant/HC_D62R: 26.5 ratio

B6: 4B7 HC N32D+S37N+D62R+Y112D/LC S32R+D33F+N35I+D97T (Fab, V domains shown)
VH: QVQLQQSGPGLVKPSQTLSLTCAISGDSVSSDSAAWNWIRQSPGRGLEWLGIIYKRSKWYNRYAVSVKSRITINPDTSKNQFSLQLNSVTPEDTAVYYCARWHSDKHWGFDDWGQGTLVTVSS
VL: DIVMTQSPLSLPVTPGEPASISCRSSQSLVFRFGITYLNWYLQKPGQSPQLLIYKGSNRASGVPDRFSGSGSGTDFTLKISRVEAEDVGVYYCQQYTSYPLTFGQGTKVEIKR
[1]
  binding result: no binding
[2]
  variant/HC_D62R: 1.9 ratio

B7: 4B7 HC N32D+K55Y+D62R+Y112D/LC S32R+D33F+N35I+D97T (Fab, V domains shown)
VH: QVQLQQSGPGLVKPSQTLSLTCAISGDSVSSDSAAWSWIRQSPGRGLEWLGIIYYRSKWYNRYAVSVKSRITINPDTSKNQFSLQLNSVTPEDTAVYYCARWHSDKHWGFDDWGQGTLVTVSS
VL: DIVMTQSPLSLPVTPGEPASISCRSSQSLVFRFGITYLNWYLQKPGQSPQLLIYKGSNRASGVPDRFSGSGSGTDFTLKISRVEAEDVGVYYCQQYTSYPLTFGQGTKVEIKR
[1]
  variant/HC_D62R: 42.8 ratio
[2]
  variant/HC_D62R: 25.6 ratio

B8: 4B7 HC N32D+D62R+Y112D/LC S32R+D33F+N35I+T36N+D97T (Fab, V domains shown)
VH: QVQLQQSGPGLVKPSQTLSLTCAISGDSVSSDSAAWSWIRQSPGRGLEWLGIIYKRSKWYNRYAVSVKSRITINPDTSKNQFSLQLNSVTPEDTAVYYCARWHSDKHWGFDDWGQGTLVTVSS
VL: DIVMTQSPLSLPVTPGEPASISCRSSQSLVFRFGINYLNWYLQKPGQSPQLLIYKGSNRASGVPDRFSGSGSGTDFTLKISRVEAEDVGVYYCQQYTSYPLTFGQGTKVEIKR
[1]
  variant/HC_D62R: 35.4 ratio
[2]
  variant/HC_D62R: 25.2 ratio

B9: 4B7 HC Q1E+N32D+D62R+Y112D/LC S32R+D33F+N35I+D97T (Fab, V domains shown)
VH: EVQLQQSGPGLVKPSQTLSLTCAISGDSVSSDSAAWSWIRQSPGRGLEWLGIIYKRSKWYNRYAVSVKSRITINPDTSKNQFSLQLNSVTPEDTAVYYCARWHSDKHWGFDDWGQGTLVTVSS
VL: DIVMTQSPLSLPVTPGEPASISCRSSQSLVFRFGITYLNWYLQKPGQSPQLLIYKGSNRASGVPDRFSGSGSGTDFTLKISRVEAEDVGVYYCQQYTSYPLTFGQGTKVEIKR
[1]
  variant/HC_D62R: 39.8 ratio
[2]
  variant/HC_D62R: 26.7 ratio

B10: 4B7 HC N32D+I53T+D62R+Y112D/LC S32R+D33F+N35I+D97T (Fab, V domains shown)
VH: QVQLQQSGPGLVKPSQTLSLTCAISGDSVSSDSAAWSWIRQSPGRGLEWLGITYKRSKWYNRYAVSVKSRITINPDTSKNQFSLQLNSVTPEDTAVYYCARWHSDKHWGFDDWGQGTLVTVSS
VL: DIVMTQSPLSLPVTPGEPASISCRSSQSLVFRFGITYLNWYLQKPGQSPQLLIYKGSNRASGVPDRFSGSGSGTDFTLKISRVEAEDVGVYYCQQYTSYPLTFGQGTKVEIKR
[1]
  variant/HC_D62R: 8.3 ratio
[2]
  variant/HC_D62R: 19.6 ratio

B11: 4B7 HC N32D+K55Y+D62Q+Y112D/LC F31I+D33F+N35I (Fab, V domains shown)
VH: QVQLQQSGPGLVKPSQTLSLTCAISGDSVSSDSAAWSWIRQSPGRGLEWLGIIYYRSKWYNQYAVSVKSRITINPDTSKNQFSLQLNSVTPEDTAVYYCARWHSDKHWGFDDWGQGTLVTVSS
VL: DIVMTQSPLSLPVTPGEPASISCRSSQSLVISFGITYLNWYLQKPGQSPQLLIYKGSNRASGVPDRFSGSGSGTDFTLKISRVEAEDVGVYYCQQYDSYPLTFGQGTKVEIKR
[1]
  variant/HC_D62R: 26.2 ratio
[2]
  variant/HC_D62R: 25.6 ratio

B12: 4B7 HC Q1E+N32D+G44S+K55Y+D62R+Y112D/LC V30L+S32R+D33F+N35I+T36N+D97T (Fab, V domains shown)
VH: EVQLQQSGPGLVKPSQTLSLTCAISGDSVSSDSAAWSWIRQSPSRGLEWLGIIYYRSKWYNRYAVSVKSRITINPDTSKNQFSLQLNSVTPEDTAVYYCARWHSDKHWGFDDWGQGTLVTVSS
VL: DIVMTQSPLSLPVTPGEPASISCRSSQSLLFRFGINYLNWYLQKPGQSPQLLIYKGSNRASGVPDRFSGSGSGTDFTLKISRVEAEDVGVYYCQQYTSYPLTFGQGTKVEIKR
[1]
  variant/HC_D62R: 29.4 ratio
[2]
  variant/HC_D62R: 20.4 ratio

B13: 4B7 HC Q1E+N32D+G44S+K55Y+D62R+Y112D/LC V30L+S32R+N35I+T36N (Fab, V domains shown)
VH: EVQLQQSGPGLVKPSQTLSLTCAISGDSVSSDSAAWSWIRQSPSRGLEWLGIIYYRSKWYNRYAVSVKSRITINPDTSKNQFSLQLNSVTPEDTAVYYCARWHSDKHWGFDDWGQGTLVTVSS
VL: DIVMTQSPLSLPVTPGEPASISCRSSQSLLFRDGINYLNWYLQKPGQSPQLLIYKGSNRASGVPDRFSGSGSGTDFTLKISRVEAEDVGVYYCQQYDSYPLTFGQGTKVEIKR
[1]
  variant/HC_D62R: 9.9 ratio
[2]
  variant/HC_D62R: 23 ratio

B14: 4B7 HC N32D+D62R+Y112D/LC V30L+S32R+N35I+T36N (Fab, V domains shown)
VH: QVQLQQSGPGLVKPSQTLSLTCAISGDSVSSDSAAWSWIRQSPGRGLEWLGIIYKRSKWYNRYAVSVKSRITINPDTSKNQFSLQLNSVTPEDTAVYYCARWHSDKHWGFDDWGQGTLVTVSS
VL: DIVMTQSPLSLPVTPGEPASISCRSSQSLLFRDGINYLNWYLQKPGQSPQLLIYKGSNRASGVPDRFSGSGSGTDFTLKISRVEAEDVGVYYCQQYDSYPLTFGQGTKVEIKR
[1]
  variant/HC_D62R: 7 ratio
[2]
  variant/HC_D62R: 25 ratio

B15: 4B7 HC N32D+D62R+Y112D/LC V30L+S32R+D33F+N35I+D97T (Fab, V domains shown)
VH: QVQLQQSGPGLVKPSQTLSLTCAISGDSVSSDSAAWSWIRQSPGRGLEWLGIIYKRSKWYNRYAVSVKSRITINPDTSKNQFSLQLNSVTPEDTAVYYCARWHSDKHWGFDDWGQGTLVTVSS
VL: DIVMTQSPLSLPVTPGEPASISCRSSQSLLFRFGITYLNWYLQKPGQSPQLLIYKGSNRASGVPDRFSGSGSGTDFTLKISRVEAEDVGVYYCQQYTSYPLTFGQGTKVEIKR
[1]
  variant/HC_D62R: 42.2 ratio
[2]
  variant/HC_D62R: 26.1 ratio

B16: 4B7 HC N32D+D62R+Y112D/LC S32R+D33F+N35I+Q50R+D97T (Fab, V domains shown)
VH: QVQLQQSGPGLVKPSQTLSLTCAISGDSVSSDSAAWSWIRQSPGRGLEWLGIIYKRSKWYNRYAVSVKSRITINPDTSKNQFSLQLNSVTPEDTAVYYCARWHSDKHWGFDDWGQGTLVTVSS
VL: DIVMTQSPLSLPVTPGEPASISCRSSQSLVFRFGITYLNWYLQKPGQSPRLLIYKGSNRASGVPDRFSGSGSGTDFTLKISRVEAEDVGVYYCQQYTSYPLTFGQGTKVEIKR
[1]
  variant/HC_D62R: 39.4 ratio
[2]
  variant/HC_D62R: 25.9 ratio

B17: 4B7 HC Q1E+N32D+G44S+K55Y+D62R+Y112D/LC S32R+D33F+N35I+D97T (Fab, V domains shown)
VH: EVQLQQSGPGLVKPSQTLSLTCAISGDSVSSDSAAWSWIRQSPSRGLEWLGIIYYRSKWYNRYAVSVKSRITINPDTSKNQFSLQLNSVTPEDTAVYYCARWHSDKHWGFDDWGQGTLVTVSS
VL: DIVMTQSPLSLPVTPGEPASISCRSSQSLVFRFGITYLNWYLQKPGQSPQLLIYKGSNRASGVPDRFSGSGSGTDFTLKISRVEAEDVGVYYCQQYTSYPLTFGQGTKVEIKR
[1]
  variant/HC_D62R: 45.1 ratio
[2]
  variant/HC_D62R: 26.3 ratio

B18: 4B7 HC N32D+D62R+Y112D/LC V30L+S32R+D33F+N35I+T36N+D97T (Fab, V domains shown)
VH: QVQLQQSGPGLVKPSQTLSLTCAISGDSVSSDSAAWSWIRQSPGRGLEWLGIIYKRSKWYNRYAVSVKSRITINPDTSKNQFSLQLNSVTPEDTAVYYCARWHSDKHWGFDDWGQGTLVTVSS
VL: DIVMTQSPLSLPVTPGEPASISCRSSQSLLFRFGINYLNWYLQKPGQSPQLLIYKGSNRASGVPDRFSGSGSGTDFTLKISRVEAEDVGVYYCQQYTSYPLTFGQGTKVEIKR
[1]
  variant/HC_D62R: 28.4 ratio
[2]
  variant/HC_D62R: 23.9 ratio
